Assay results published in the supplement of paper PMC7125110.
± gives the standard error. This sample holds only a part of the variants without activity.

B1: glmS ribozyme (parent)
chain: AUAAAAGCGCCAGAACUACAGAAAUGUAGUUGACGAGGAGGAGGUUUAUCGAAUUUUCGGCGGAUGCCUCCAAA

Key:
Conditions in all cases: with glucosamine-6-phosphate
glucosamine-6-phosphate [1] = variants of: B1; test: self-cleavage kobs at 640 uM GlcN6P; higher = faster cleavage; RNA array
Outline: (§1)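 In situ transcription by E. coli RNA polymerase produced barcoded ribozyme variants on sequenced MiSeq chips, and a hybridised Cy3 probe tracked them at 37 °C. Glucosamine-6-phosphate was flowed in at 40 μM to 10 mM in HEPES/KCl/Mg(OAc)2 buffer. kcat and KM were taken from weighted Michaelis–Menten fits of kobs values from exponential decay fits.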

glucosamine-6-phosphate [2] = variants of: B1; test: self-cleavage kobs at 2500 uM GlcN6P; higher = faster cleavage; RNA array
Outline: as §1

glucosamine-6-phosphate [3] = variants of: B1; test: self-cleavage kobs at 10000 uM GlcN6P; higher = faster cleavage; RNA array
Outline: as §1

Variant | self-cleavage kobs at 640 uM GlcN6P (glucosamine-6-phosphate [1]) [s⁻¹] | self-cleavage kobs at 2500 uM GlcN6P (glucosamine-6-phosphate [2]) [s⁻¹] | self-cleavage kobs at 10000 uM GlcN6P (glucosamine-6-phosphate [3]) [s⁻¹]
AUAAAAGCGCAAGAAUUACAGAAAUGUAGUUGACGAGGAGGUGGUUUAUCGAAUUUUCGGCGGAUGCCUCCAAA | < 1e-05 |  | 
AUAAAAGUGCCAGAACUACAGAAAUGUAGUUGACGAGGUCGAGGUUUAUCGAAUUGGCGGCGGAUGCCUCCAAA | < 1e-05 |  | 
AUAAAUGCGCCAGAACUACAGAAAUGUAGUUGACGAGGGGGAGGUUUGUCGAAUUUUCGGCGGAUGCCUCCAAA | < 1e-05 | < 1e-05 | 
AUAAAAGCGCCAGAACUACAGAAAUGUAGCUGACGAGGAGGAGGUUUAUCGAAUUUUCCGCGUAUGCCUCCAAA | < 1e-05 |  | 
AUAAAAGCGCCAGAACUACAGAAAUGUAGUCGACGAGGUGGAGGUUUAUCGAAUUUUCGGCGGAUGACUCCAAA | 0.000787 ± 0.00025 | 0.000712 ± 0.00021 | 0.000846 ± 0.0002
AUAAAAGCGCCAGAAUUACAGAAAUGUAGUUGACCAGGAGGAGGUUUAUCGAUUUUUUGGCGGAUGCCUCCAAA | < 1e-05 | < 1e-05 | 
AUAAAAGCGCCAGAACUACAGAAAUGUAGUUAACGACGAGGCGGUUUAUCGAAUUUUCGGCGGAUGCCUCCAAA | < 1e-05 |  | 
AUAAAAUCGCCAGAACUACAGAAAUGUAGUUGACGAGGAAGACGUUUAUCGAAUUUUCGGCGGAUGCCUCCAAA | < 1e-05 | < 1e-05 | 
AUAAAAGCGCCAGAUCUACAGAAAUGUAGUACACGAGGAGGAGGUUUAUCGAAUUUUCGGCGGAUGCCUCCAAA | 4.96e-05 ± 2e-05 | 6.02e-05 ± 2.5e-05 | 
AUAAAAGCGCCAGAAUUACAGAAAUGUAGUUGACGAGGAGAAGGUUUAUCGAAUUUUCGGCGGAUGCCUCAAAA | 7.7e-05 ± 2.1e-05 | 0.000279 ± 7.1e-05 | 
AUAAAAGCGCCAGAUCUACAGAAAUGUAGAUCACGAGGAGGAGGUUUAUCGAAUUCCCGGGGGAUGCCUCCAAA | < 1e-05 | < 1e-05 | 
AUAAAAGCGCCAGAACUACAGAAAUGUAGUUGACGAGGAGGAGUUUGAUCGGAUUUUCGGCGGGUGCCUCCAAA | < 1e-05 |  | 
AUAAAGGCGCCAGAACUACAGAAAUGUAGUUUACUAGGAGGAGGUUUAUCAAAUUUUCGGCGGAUGCCUCCAAA | < 1e-05 |  | 
AUAAAAACGCCAGAACUACAGAAAUGUAGUUGACGAGGCGGAGGUUUAUCGAAUUGUCGGCGGAUGCGUCCAAA | < 1e-05 | < 1e-05 | 
AUAAAAGCGCCAGAACUACAGAAAUGUAGUUGAUGAGAAGGGGGUUUAUCGAAUUUUCGGCGGAUGCCUCCAAA | < 1e-05 |  | 
AUAAAAGCGCCAGAACUACAGAAAUGUAGUUGACGAGGAGGAGCUUUAUGGAAUUUUCGGCUGAUGCCUCCAAA | < 1e-05 |  | 
AUAAAAGCGCCAGUACUACAGAAAUGUAGUUGACGUGGAGGAGGUUUAUCGAAUUGUCGGCGGAUGGCUCCAAA | 0.000671 ± 0.0003 |  | 
AUAAAAGCCCCAGAACUACAGAAAUGUAGUUGACGACGAGGAGGUCUAUGGAAUUUUCGGCGGAUGCCUCCAAA | < 1e-05 | < 1e-05 | 
AUAAAAGCGCCAGAACUACAGAAAUGUAUUUGACGGGGAGGAGGUUUAUCGAUUUUUCGGCAGAUGCCUCCAAA | < 1e-05 | < 1e-05 | 
AUAAAAGCGACAGAACUACAGAAAUGUAGUUGACCAGGAGGAGGUUUAUCGAAUCUUCGGCGGAUGCCUCCAAA | < 1e-05 | < 1e-05 | 
AUAAAAGCGCAAGAACUACAGAAAUGUAGUUGACGAGGAGGAGGUUUAUCGGAUUUUCGGCGGCUGCCUCCAAA | < 1e-05 | < 1e-05 | 
AUAAAAGCGCCAGAACUACAGAAAUGUAGUUGAGGAUGGGGAGGUUUAUCGAAUUUUUGGGGGAUGCCUCCAAA | 0.00305 ± 0.001 |  | 
AUAAAAGCGCCAGAACUACAGAAAUGUAGUUGAAGAGGCGAAGGUUUAUCGAAUUUUCGGCGGAUUCCUCCAAA | < 1e-05 | < 1e-05 | 
AUAAAAGCGCCAGACCUACAGAAAUGUAGUUAACGAGGAGGAGGUUUAUCGAAUCUUCUGCGGAUGCCUCCAAA | < 1e-05 |  | 
AUAAAAGCACUAGAACUACAGAAAUGUACUUGACUAGGAGGAGGUUUAUCGAAUUUUCCGCGGAUGCCUCCAAA | < 1e-05 | < 1e-05 | 

Variant | self-cleavage kobs at 640 uM GlcN6P (glucosamine-6-phosphate [1]) [s⁻¹] | self-cleavage kobs at 2500 uM GlcN6P (glucosamine-6-phosphate [2]) [s⁻¹] | self-cleavage kobs at 10000 uM GlcN6P (glucosamine-6-phosphate [3]) [s⁻¹]
AUAAAAGCGCGAGAACUACAGAAAUGUAGUUGUCGAGGAGGAGGUUUAUCGAAUUUUUGGCGGAUGCCUCCAAA | < 1e-05 |  | 
AUAAAAGCCCCAGAACUACAGAAAUGUAGUUGACGAGGAGGUGGUUAAUCGAAUUUGCGGCGGAUGCCUCCAAA | < 1e-05 |  | 
AUAAAAGCGCCAGAACUACAGAAAUGUAGUUGACGAGGAGGAGCUUGAUCGAAUUUUCGGCGGAUGCCUCCAAA | < 1e-05 |  | 
AUAAAAGCGCCAGAACUACAGAAAUGUAGUUGAGGAGGAGGAGGUUUGUCGAAUUUUCGGCGGAUGCCUUCAAA | < 1e-05 |  | 
AUAAAAGCGCCAGACCUACAGAAAUGUAGUUGACGAGGAGGAGGUUUAUCGAAUUUUAGGCGGAUGGCUCGAAA | 4.54e-05 ± 1.8e-05 |  | 
AUAAAAGGGCCAGAACUACAGAAAUGUAGUUAACGAGGAGGAGGUUUAUCGAGUUUUCGGCGGAUGCCUCCAAA | < 1e-05 |  | 
AUAAAAGCGCCAGAACUACAGAAAUGUAGUUGACUAGGAGGAGGUUGAUCGGAUUUUCGGCGGAUGCCUACAAA | 9.25e-05 ± 3.2e-05 |  | 
AUAAAAGCGCCAGAAUUACAGAAAUGUAGUUGACGAGGAGGAGGUUUCUCGAAUUUUCGGCUGAUGCCUCCAAA | < 1e-05 | < 1e-05 | 
AUAAAAGCGUCAGAAGUACAGAAAUGUAGUGGCCGAGGAGGAGGUUUAUCGAAUUUUCGGCGGAUGCCUGCAAA | < 1e-05 |  | 
AUAAAAGCGCCAUAACUACAGAAAUGUAGUUAACGAGGAGGAGGUAUAUCGAAUUUUCGGCGGAUGCCUCCAAA | 4.17e-05 ± 1.9e-05 | 8.03e-05 ± 2.3e-05 | 
AUAAAAGCGACAGAACUACAGAAAUGUAGUUGACGAGUGGGAGGUUUAUCGAAUUUUCGGCGGAUGCCUCCAAA | < 1e-05 | < 1e-05 | 
AUAAAAGCGCCAGAACUACAGAAAUGUAGUUGACGAGGUGGAGGUUUAUGGUAUUUUCUGCGGAUGGCUCCAAA | < 1e-05 |  | < 1e-05
AUAAAAGCGCCAGAACUACAGAAAUGUAGUUUUCUCGGAGGAGGUUUAUUGAAUUUUCGGCGGAUGCCUCCAAA | < 1e-05 |  | 
AUAAAAGCGCCAGAACUACAGAAAUGUAGUUGACUAGUAGCAGGUUUAUCGAAUUUUCGGCGGAUGCCUCCAAA | < 1e-05 | < 1e-05 | 
AUAAAACCUCCAGAACUACAGAAAUGUAGUUGACGAGGAGGAGGUUUAUCGAAUUUUCGGCCGAUGCCUCCAAA | < 1e-05 |  | 
AUAAAGGCUCCAGAACUACAGAAAUGUAGUUGACGAGGAGGAGGUUUAUCGAAUUUUCGGCGGAUGCCUCCAAA | < 1e-05 | < 1e-05 | < 1e-05
AUAAAUGCGCCAGAACUACAGAAAUGUACUUGACGAGGAGGAGGUUUUUCGAAUUUUCGGCGGAUGCCUCCAAA | < 1e-05 |  | 
AUAAAAGCGCCAGAACUACAGAAAUGUAGUUGACGAGGAGGAGGUUUAUCGAACUUUCGCCGGAUGGCUCCAAA | < 1e-05 |  | 
AUAAAAGCGCCAGAAAUACAGAAAUGUAGGUGACAAGGAGGAGGUUUAUAGAAUUUUCGGCGGAUGCCUCCAAA | < 1e-05 |  | < 1e-05
AUAAAAGCGCCAGAAUUACAGAAAUGUAGUAGCCGAGGAGGAGGUUUAUCGAAUUGUCGGCGGAUGCGUCCAAA | < 1e-05 |  | 
AUAAAAGCUCCAGAACUACAGAAAUGUAGUUGACGUGGAUGAGGUUUAUCGAAUUUUCGACGGAUGCCUCCAAA | < 1e-05 |  | 
AUAAAAGCGCCCGAAAUACAGAAAUGUAGUUGUCGAGGAGGAGGUUUAUCGAAUUUUCGGCGGAUGCCUCCAAA | < 1e-05 |  | 
AUAAAAGGGCCAUAACUACAGAAAUGUAGUUGUCGAGAAGGAGGUUUAUCGAAUUUUCGGCGGAUGCCUCCAAA | < 1e-05 |  | 
AUAAAAGCUCCAGAACUACAGAAAUGUAGUUGACGAGGAGGAGGUUUAUCGAAUUUUCGGCGGACGCCUCCAAA | < 1e-05 |  | < 1e-05
AUAAAAGCGCCCGAACUACAGAAAUGUAGUUUACGAGGAGGAGGUUUAUCGAAUUUUCGGCGGAUGCCUCCAAA | 5.84e-05 ± 2.3e-05 | 8.84e-05 ± 1.6e-05 | 0.000265 ± 5e-05
